Measured values taken from the Human Domainome abundance scans (Beltran et al. 2025).

B1: Ubiquitin-protein ligase residues 30 to 86; numbered along this chain, Q05086 (parent)
chain: KHLIERYYHQLTEGCGNEACTNEFCASCPTFLRMDNNAAAIKALELYKINAKLCDPH

Variants of: B1
Assay: abundance fitness (aPCA) (normalised: wild type 0, dead -1); higher = more abundant; growth selection in yeast, the domain comes from the species named
Conditions: Homo sapiens

Abundance fitness: each site, then its substitutions
A51: E -0.102, Q -0.289, F -0.053, P -0.35, N -0.152, D -0.052, C -0.151, I -0.45, G -0.075, S -0.012, W -0.029, H -0.147, K -0.093, L -0.463, V -0.082, M -0.189, T -0.02, Y -0.195
I49: T 0.003, L -0.043
L53: W -0.164, K -0.071, Q 0.04, A -0.098, D -0.353, V -0.056, F -0.048, P -0.23, S -0.097, Y -0.062, M -0.073, C -0.14, E -0.068, G -0.199, N -0.433, H -0.191, I -0.032, T -0.109
C54: F -0.448, Y -0.94, S -0.076
D55: F -0.06, I -0.149, M 0.006, L -0.027, K 0.056, C -0.099, E -0.017, A -0.043, N 0.017, H -0.227, P -0.027, G -0.018
K52: R -0.052, W -0.437, S -0.31
A43: K -0.242, N -0.768, M -0.321, V -0.221, L -0.826, W -0.989, S 0.027, R -0.717, P -0.467
E45: D -0.199, S -0.067, W -0.372, A -0.087, C -0.276, H -0.184, N 0.11, T -0.288, Y -0.217, Q -0.129, K -0.129, R -0.064, F -0.221, P -0.873, G -0.069, M -0.181
K48: H -0.111, G -0.188, R -0.072, M -0.424, S -0.161, D 0.009, V -0.455, I -0.607, Y -0.438, L -0.388, E -0.058, Q -0.109, C -0.427, W -0.357, T -0.122, F -0.682, A -0.17, P -0.222, N 0.012
L46: D -0.389, M -0.13, P -0.528, C -0.029, Q -0.17, S -0.095, I -0.056, V -0.06, N -0.341, T -0.278, F -0.063, H 0.035, G -0.178, A -0.107, K -0.754, E -0.514, W -0.401, Y -0.312
Y47: W -0.085, G 0.008, L 0.027, H 0.088, C 0.031, R 0.05, N 0.012, A 0.088, P -0.05, F 0.108, Q -0.03, T 0.073, S 0.084, I -0.094, K 0.031, V 0.06
N50: W -0.31, C -0.057, P -0.041, H -0.05, V -0.158, E -0.041, T -0.006, L -0.143, K -0.095, I -0.356, Q -0.11, R -0.033, S 0.023, A 0.004, D 0.034, Y -0.018, G -0.019
L44: Y 0.131, T 0.118, H -0.096, K 0.108, R 0.074, F -0.122, S 0.051, W -0.16, P 0.059, V 0.017, G 0.057, A 0.057, D 0.042, C -0.032, I 0.173, N 0.013
